Series [1] is classed as physicochemical. The settings on record: pH 7.4. How it is done:
Aliquots of 50 µL of ^68Ga-labelled conjugate (~5 µM) were added to 450 µL of phosphate-buffered saline pH 7.4 (PBS) and 500 µL of Octanol into a 1.5 mL Eppendorf tube. The mixture was vigorously shaken for 20 min at 1400 rpm in a standard vortex (MS 3, IKA, Staufen, Germany) and hereafter, 200 µL of each phase removed and measured in a gamma counter (2480 automatic gamma counter Wizard2 3’’, Perkin Elmer, Waltham, MA, USA) LogD was calculated as the ratio of octanol/water phase using Excel. (n = 3, six technical replicates)

Series [2] is described as follows: in vivo. The settings on record: mouse, iv; for tissue uptake: female, BALB/c, 0.4 nmol, total radioactivity, Kidney uptake. Also noted: species or system BALB/c mice. Here is the method: Stability test and biodistribution were conducted in 4–6 weeks-old female BALB/c mice (in-house breed, ZVTA Innsbruck). ^68Ga-labelled conjugates, dissolved in PBS (Ph. Eur. pH 7.4) and pH adjusted to pH 6.5 with sodium acetate, were injected via lateral tail vein using approximately 0.4 nmol of compound and a volume of 150 µL. For biodistribution, the same procedure was applied except for different time points of 45 and 90 min. Hereafter the animals were euthanized by cervical dislocation and the organs (blood, spleen, pancreas, stomach, liver, kidneys, heart, lung, muscle, femur) were removed and weighed. The activity of the samples was measured in a gamma counter and the results were calculated as a percentage of injected dose per gram tissue (%ID/g).

In series [3] the test system is A. fumigatus. Put plainly: Uptake assay of 68Ga-labelled conjugates in A. fumigatus. It is filed as cell-based, Aspergillus fumigatus. Particulars: iron-depleted AMM, 45 min, 37 °C. Here is the method:
Assays were performed as previously described. Briefly, uptake and competition assays were performed with A. fumigatus in iron-depleted and iron-replete Aspergillus minimal media (AMM), using a 96-well MultiScreen Filter Plates HTS (1 μm glass fiber filter, Merck Millipore, Darmstadt, Germany). Compounds were incubated for 45 min at 37 °C and filters measured in a gamma counter. Competition assays were performed in the same way except for pre-incubation with the iron-containing antifungal conjugates for 15 min, resulting in a competition at the MirB transporter to show specific binding to MirB.

For series [4], the system named is A. fumigatus (ATCC 46645). In kind it is cell-based, Aspergillus fumigatus. The settings on record: for Antifungal activity lacking up to: medium and time not given. How it is done: (§1) Susceptibility tests were performed according to CLSI guidelines with slight modifications. In brief, 96-well plates (Greiner Bio-One GmbH) were prepared with 100 μL of 2 × AMM (Aspergillus minimal medium) or 0.2 × Potato Dextrose Broth (PDB) containing 3 × 10^4 spores of A. fumigatus (ATCC 46645) per well. An amount of 100μL antifungal, dissolved in water, was added to get a final concentration of 1 × AMM/0.1 × PDB medium and antifungal concentration ranging from 0.031–16 μg/mL.

Series [5] relates to A. fumigatus mutant strain ΔsidA/ΔftrA. Nature of the series: Growth promotion assay. In kind it is cell-based, Aspergillus fumigatus. The settings on record: 72 h, 37 °C; for Growth promotion (in words): visually assessed. An excerpt: To assess the capability of A. fumigatus to utilize the modified siderophores, a mutant strain (ΔsidA/ΔftrA) that lacks the genes sidA and ftrA was used. These mutations impair both siderophore-mediated iron acquisition and reductive iron assimilation, in other words, high-affinity iron acquisition. If the activity of externally supplied siderophore was still intact, similar growth to [Fe]TAFC should be observed, however, in the case of growth reduction, it cannot be distinguished from antifungal activity. Spores (10^4) were point inoculated on solid 0.5 mL of AMM [26] in 24-well plates containing increasing concentrations of iron labelled siderophore ranging from 0.1–50 μM. Plates were incubated for 72 h at 37 °C in a humidity chamber and visually assessed.

Series [6] relates to A. fumigatus (ATCC 46645). It is filed as cell-based, Aspergillus fumigatus. Here is the method:
as §1

Where [7] appears, read: Biodistribution Intestine 45 min.
Where [8] appears, read: Biodistribution Intestine 90 min.
Where [9] appears, read: Biodistribution Pancreas 45 min.
The mark [10] stands for this setting: Biodistribution Pancreas 90 min.
Setting [11] is: iron-depleted AMM, 0.1–50 µM tested.

Where two headings read alike, the source gives them in different places.

The term logD denotes the decadic logarithm of the distribution of all forms, ionised or not, between an organic phase and buffer at a given pH. High values mean higher lipophilicity, low ones lower lipophilicity. In general, tissue uptake refers to the percentage of the injected dose found per gram of tissue. On to `CC(=O)N[C@@H]1CCCN(O)C(=O)/C=C(/C)CCOC(=O)[C@H](NC(=O)CCC(=O)N[C@H](CCCNC(=N)N)C(=O)N[C@H](CCCCN)C(=O)N[C@H](CCCCN)C(=O)N[C@H](Cc2c[nH]c3ccccc23)C(=O)N[C@H](Cc2ccccc2)C(=O)N[C@H](Cc2c[nH]c3ccccc23)C(N)=O)CCCN(O)C(=O)/C=C(/C)CCOC(=O)[C@H](NC(C)=O)CCCN(O)C(=O)/C=C(/C)CCOC1=O` (stereo in doubt) [[^68Ga]Ga-DAFC-D-PAF26, metal not drawn], for which the logD in series [1] is -3.35 ± 0.16. In addition, the tissue uptake in series [2] is 150 %ID/g. Besides, the tissue uptake at 0.75 h in series [2] (Biodistribution Blood 45 min) came to 1.08 ± 0.12 %ID/g; in series [2] (Biodistribution Femur 45 min) it was 1.47 ± 0.09 %ID/g; in series [2] (Biodistribution Heart 45 min) it was 0.76 ± 0.02 %ID/g; in series [2] (setting [7]), 0.63 ± 0.02 %ID/g; in series [2] (Biodistribution Kidneys 45 min), 150 ± 18 %ID/g; in series [2] (Biodistribution Liver 45 min), 20.8 ± 0.58 %ID/g. Further, the tissue uptake at 0.75 h was 2.16 ± 0.19 %ID/g in series [2] (Biodistribution Lung 45 min); 0.42 ± 0.18 %ID/g in series [2] (Biodistribution Muscle 45 min); 0.41 ± 0.02 %ID/g in series [2] (setting [9]); 2.21 ± 0.15 %ID/g in series [2] (Biodistribution Spleen 45 min); 0.45 ± 0.17 %ID/g in series [2] (Biodistribution Stomach 45 min). Moreover, the tissue uptake at 1.5 h in series [2] (Biodistribution Blood 90 min) was found to be 0.4 ± 0.04 %ID/g; in series [2] (Biodistribution Femur 90 min), 1.11 ± 0.16 %ID/g; in series [2] (Biodistribution Heart 90 min), 0.6 ± 0.23 %ID/g; in series [2] (setting [8]) it was 0.56 ± 0.03 %ID/g; in series [2] (Biodistribution Kidneys 90 min), 158 ± 25.6 %ID/g; in series [2] (Biodistribution Liver 90 min), 23 ± 0.89 %ID/g. Moreover, the tissue uptake at 1.5 h in series [2] (Biodistribution Lung 90 min) was 1.31 ± 0.23 %ID/g; in series [2] (Biodistribution Muscle 90 min), 0.28 ± 0.1 %ID/g; in series [2] (setting [10]) it was 0.26 ± 0.03 %ID/g; in series [2] (Biodistribution Spleen 90 min) it was 1.97 ± 0.21 %ID/g; in series [2] (Biodistribution Stomach 90 min), 0.35 ± 0.03 %ID/g. Further, the “Uptake into A. fumigatus hyphae normalized to uptake of [68Ga]Ga-TAFC” value in series [3] is 137%.

Take `CC(=O)NC1CCCN(O)C(=O)/C=C(/C)CCOC(=O)C(NC(=O)[C@@H](Cc2ccccc2)NC(=O)[C@H](CC(C)C)NC(=O)[C@H](CC(N)=O)NC(C)=O)CCCN(O)C(=O)/C=C(/C)CCOC(=O)C(NC(C)=O)CCCN(O)C(=O)/C=C(/C)CCOC1=O` (stereo in doubt) [[^68Ga]Ga-DAFC-NLF-Ac, metal not drawn]: the logD in series [1] was -0.8 ± 0.08. In series [2], the tissue uptake is 36 %ID/g. Further, the tissue uptake at 0.75 h came to 0.46 ± 0.1 %ID/g in series [2] (Biodistribution Blood 45 min); 0.16 ± 0.05 %ID/g in series [2] (Biodistribution Femur 45 min); 0.22 ± 0.02 %ID/g in series [2] (Biodistribution Heart 45 min); 3.09 ± 0.03 %ID/g in series [2] (setting [7]); 35.7 ± 1.73 %ID/g in series [2] (Biodistribution Kidneys 45 min); 0.85 ± 0.51 %ID/g in series [2] (Biodistribution Liver 45 min). Also, the tissue uptake at 0.75 h is 0.62 ± 0.01 %ID/g in series [2] (Biodistribution Lung 45 min); 0.18 ± 0.08 %ID/g in series [2] (Biodistribution Muscle 45 min); 0.21 ± 0.06 %ID/g in series [2] (setting [9]); 0.35 ± 0.1 %ID/g in series [2] (Biodistribution Spleen 45 min); 0.69 ± 0.31 %ID/g in series [2] (Biodistribution Stomach 45 min). The tissue uptake at 1.5 h was 0.13 ± 0.1 %ID/g in series [2] (Biodistribution Blood 90 min); 0.59 ± 0.5 %ID/g in series [2] (Biodistribution Femur 90 min); 0.12 ± 0.11 %ID/g in series [2] (Biodistribution Heart 90 min); 4.85 ± 1.78 %ID/g in series [2] (setting [8]); 39.9 ± 2.66 %ID/g in series [2] (Biodistribution Kidneys 90 min); 0.44 ± 0.05 %ID/g in series [2] (Biodistribution Liver 90 min). Besides, the tissue uptake at 1.5 h is 0.32 ± 0.06 %ID/g in series [2] (Biodistribution Lung 90 min); 0.17 ± 0.07 %ID/g in series [2] (Biodistribution Muscle 90 min); 0.1 ± 0.06 %ID/g in series [2] (setting [10]); 0.24 ± 0.07 %ID/g in series [2] (Biodistribution Spleen 90 min); 2.04 ± 0.74 %ID/g in series [2] (Biodistribution Stomach 90 min). In addition, in series [3], the “Uptake into A. fumigatus hyphae normalized to uptake of [68Ga]Ga-TAFC” value was 35%.

Regarding `CC(=O)NC1CCCN(O)C(=O)/C=C(/C)CCOC(=O)C(NC(=O)CCC(=O)N[C@H](CCCNC(=N)N)C(=O)N[C@H](CCCCN)C(=O)N[C@H](CCCCN)C(=O)N[C@H](Cc2c[nH]c3ccccc23)C(=O)N[C@H](Cc2ccccc2)C(=O)N[C@H](Cc2c[nH]c3ccccc23)C(N)=O)CCCN(O)C(=O)/C=C(/C)CCOC(=O)C(NC(C)=O)CCCN(O)C(=O)/C=C(/C)CCOC1=O` (stereo partly drawn) [[Fe]DAFC-D-PAF26], the “MIC 24 h” value was greater than 16 µg/mL in series [4] (AMM, 37 °C, 24 h); greater than 8.4 µM in series [4] (ATCC 46645, 24 h); greater than 16 µg/mL in series [6] (0.1 × PDB, 37 °C, 24 h); greater than 8.4 µM in series [6] (ATCC 46645, 24 h). The “MIC 48 h” value in series [4] (AMM, 37 °C) is on record as greater than 16 µg/mL; in series [6] (0.1 × PDB, 37 °C, 48 h), greater than 16 µg/mL. Besides, the “Growth promotion (in words)” value in series [5] is recorded as “low hyphal growth without sporulation”.

As for `CC(=O)NC1CCCN(O)C(=O)/C=C(/C)CCOC(=O)C(NC(=O)[C@@H](Cc2ccccc2)NC(=O)[C@H](CC(C)C)NC(=O)[C@H](CC(N)=O)NC(C)=O)CCCN(O)C(=O)/C=C(/C)CCOC(=O)C(NC(C)=O)CCCN(O)C(=O)/C=C(/C)CCOC1=O` (stereo partly shown) [[Fe]DAFC-NLF-Ac], the “MIC 24 h” value in series [4] (AMM, 37 °C, 24 h) is recorded as greater than 16 µg/mL; in series [4] (ATCC 46645, 24 h) it was greater than 12.5 µM. Moreover, in series [4] (AMM, 37 °C), the “MIC 48 h” value is recorded as greater than 16 µg/mL. For the same compound, the “Antifungal activity lacking up to” value in series [4] was greater than 16 µg/mL. Besides, in series [5] (setting [11]), the Concentration of sporulation is given as 50 µM.

For `CC(=O)NC1CCCN(O)C(=O)/C=C(/C)CCOC(=O)C(NC(=O)CCC(=O)N[C@@H](CC(N)=O)C(=O)N[C@@H](CC(C)C)C(=O)N[C@H](Cc2ccccc2)C(=O)O)CCCN(O)C(=O)/C=C(/C)CCOC(=O)C(NC(C)=O)CCCN(O)C(=O)/C=C(/C)CCOC1=O` (stereo partly shown) [[Fe]DAFC-succ-NLF], the “MIC 24 h” value in series [4] (AMM, 37 °C, 24 h) is listed as greater than 16 µg/mL; in series [4] (ATCC 46645, 24 h), greater than 12.0 µM. In addition, the “MIC 48 h” value in series [4] (AMM, 37 °C) is reported as greater than 16 µg/mL. Moreover, the “Antifungal activity lacking up to” value in series [4] is listed as greater than 16 µg/mL. Also, the “Concentration of growth induction / utilization” value in series [5] (setting [11]) lay in the range of 10 to 50 µM. Also, the “Growth promotion (in words)” value in series [5] is “very low growth promotion”.

Turning to `CC(=O)N[C@@H]1CCCN(O)C(=O)/C=C(/C)CCOC(=O)[C@H](NC(=O)CCC(=O)N[C@@H](CCCNC(=N)N)C(=O)N[C@@H](CCCCN)C(=O)N[C@@H](CCCCN)C(=O)N[C@@H](Cc2c[nH]c3ccccc23)C(=O)N[C@@H](Cc2ccccc2)C(=O)N[C@@H](Cc2c[nH]c3ccccc23)C(N)=O)CCCN(O)C(=O)/C=C(/C)CCOC(=O)[C@H](NC(C)=O)CCCN(O)C(=O)/C=C(/C)CCOC1=O` [[^68Ga]Ga-DAFC-L-PAF26, metal not drawn], in series [1], the logD was -3.13 ± 0.02. Besides, the “Uptake into A. fumigatus hyphae normalized to uptake of [68Ga]Ga-TAFC” value in series [3] was 90%.

The record behind these values is PMC7765500, “Siderophore Scaffold as Carrier for Antifungal Peptides in Therapy of Aspergillus fumigatus Infections” (Journal of Fungi, 2020).
